Results published in the supplement of paper PMC9112550, “Optimization of the antimicrobial peptide Bac7 by deep mutational scanning” (BMC Biology, 2022).

Test system: Escherichia coli TOP10
Assay: shrunken log2 fold change of peptide-encoding DNA abundance (4.5 h post-induction vs induction); higher = less antimicrobial activity (less host growth inhibition)
Settings: time post-induction: 4.5 h; library: site-saturation at positions 5, 18, 19, 20
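Note: peptides expressed intracellularly from a pBAD plasmid library in pooled LB shake-flask culture, induced with 0.3% L-arabinose, DNA abundance read by NGS, three biological replicates, DESeq2 with apeglm shrinkage.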

Row | Sequence | shrunken log2 fold change
1 | RRIRHRPPRLPRPRPRPEATPRP | 0.0573
2 | RRIRLRPPRLPRPRPRPMMIPRP | -0.203
3 | RRIRFRPPRLPRPRPRPMCFPRP | -0.256
4 | RRIRIRPPRLPRPRPRPIVYPRP | -0.383
5 | RRIRCRPPRLPRPRPRPAVTPRP | 0.0305
6 | RRIRMRPPRLPRPRPRPVFQPRP | 0.168
7 | RRIRWRPPRLPRPRPRPNFAPRP | 0.29
8 | RRIRDRPPRLPRPRPRPKMRPRP | -0.013
9 | RRIRKRPPRLPRPRPRPPPCPRP | 0.585
10 | RRIRSRPPRLPRPRPRPLYKPRP | -0.486
11 | RRIRHRPPRLPRPRPRPSVMPRP | -0.19
12 | RRIRPRPPRLPRPRPRPMMMPRP | -0.167
13 | RRIRQRPPRLPRPRPRPNYQPRP | -0.491
14 | RRIRYRPPRLPRPRPRPNAYPRP | -0.212
15 | RRIRVRPPRLPRPRPRPHIHPRP | -0.545
16 | RRIRCRPPRLPRPRPRPRMYPRP | -0.562
17 | RRIRGRPPRLPRPRPRPGNCPRP | 0.131
18 | RRIRMRPPRLPRPRPRPNGDPRP | 0.297
19 | RRIRTRPPRLPRPRPRPKQWPRP | 0.158
20 | RRIRARPPRLPRPRPRPYPTPRP | -0.0691
21 | RRIRERPPRLPRPRPRPYPAPRP | -0.544
22 | RRIRFRPPRLPRPRPRPTRMPRP | 0.762
23 | RRIRQRPPRLPRPRPRPMFHPRP | -0.815
24 | RRIRYRPPRLPRPRPRPYTYPRP | -0.438
25 | RRIRVRPPRLPRPRPRPRTVPRP | 0.16

Row | Sequence | shrunken log2 fold change
26 | RRIRVRPPRLPRPRPRPQAWPRP | 0.416
27 | RRIRNRPPRLPRPRPRPCTFPRP | -0.0494
28 | RRIRERPPRLPRPRPRPAQLPRP | -0.124
29 | RRIRKRPPRLPRPRPRPKFYPRP | -0.0589
30 | RRIRPRPPRLPRPRPRPIATPRP | -0.159
31 | RRIRKRPPRLPRPRPRPDWYPRP | -0.149
32 | RRIRHRPPRLPRPRPRPKPMPRP | 0.223
33 | RRIRKRPPRLPRPRPRPCSLPRP | -0.529
34 | RRIRMRPPRLPRPRPRPMRAPRP | 2.56
35 | RRIRRRPPRLPRPRPRPESPPRP | 0.5
36 | RRIRTRPPRLPRPRPRPESPPRP | 0.305
37 | RRIRTRPPRLPRPRPRPYIQPRP | -0.274
38 | RRIRGRPPRLPRPRPRPSHSPRP | 0.0319
39 | RRIRLRPPRLPRPRPRPADSPRP | -0.182
40 | RRIRDRPPRLPRPRPRPKMLPRP | 0.11
41 | RRIRWRPPRLPRPRPRPCKPPRP | 0.119
42 | RRIRERPPRLPRPRPRPIKAPRP | -0.00435
43 | RRIRVRPPRLPRPRPRPVKQPRP | -0.0475
44 | RRIRWRPPRLPRPRPRPHNGPRP | -0.349
45 | RRIRARPPRLPRPRPRPLCCPRP | 0.305
46 | RRIRQRPPRLPRPRPRPIMWPRP | 0.0394
47 | RRIRRRPPRLPRPRPRPANTPRP | 0.0917
48 | RRIRGRPPRLPRPRPRPVPWPRP | 0.526
49 | RRIRKRPPRLPRPRPRPPEVPRP | 0.741
50 | RRIRCRPPRLPRPRPRPFRVPRP | -0.32

Row | Sequence | shrunken log2 fold change
51 | RRIRKRPPRLPRPRPRPLRHPRP | 0.35
52 | RRIRGRPPRLPRPRPRPRSIPRP | 0.238
53 | RRIRVRPPRLPRPRPRPIGNPRP | -0.194
54 | RRIRVRPPRLPRPRPRPRSPPRP | 0.342
55 | RRIRSRPPRLPRPRPRPQICPRP | -0.0872
56 | RRIRLRPPRLPRPRPRPEVMPRP | 0.0474
57 | RRIRDRPPRLPRPRPRPYYPPRP | -0.248
58 | RRIRQRPPRLPRPRPRPWVVPRP | 0.0305
59 | RRIRTRPPRLPRPRPRPLTNPRP | -0.0099
60 | RRIRNRPPRLPRPRPRPNMMPRP | -0.25
61 | RRIRMRPPRLPRPRPRPADIPRP | 0.067
62 | RRIRSRPPRLPRPRPRPGESPRP | 0.249
63 | RRIRRRPPRLPRPRPRPGMWPRP | 0.59
64 | RRIRSRPPRLPRPRPRPQDKPRP | -0.0231
65 | RRIRNRPPRLPRPRPRPMPGPRP | 0.0352
66 | RRIRERPPRLPRPRPRPCTTPRP | -0.172
67 | RRIRNRPPRLPRPRPRPGTHPRP | -0.16
68 | RRIRPRPPRLPRPRPRPLCMPRP | -0.444
69 | RRIRLRPPRLPRPRPRPARCPRP | 0.651
70 | RRIRTRPPRLPRPRPRPPNQPRP | 0.185
71 | RRIRCRPPRLPRPRPRPEKGPRP | 0.0373
72 | RRIRARPPRLPRPRPRPWTWPRP | -0.327
73 | RRIRWRPPRLPRPRPRPLKLPRP | -0.225
74 | RRIRKRPPRLPRPRPRPVFIPRP | -0.0138
75 | RRIRKRPPRLPRPRPRPQPCPRP | 0.192

Row | Sequence | shrunken log2 fold change
76 | RRIRWRPPRLPRPRPRPNTWPRP | 0.245
77 | RRIRKRPPRLPRPRPRPYALPRP | -0.119
78 | RRIRARPPRLPRPRPRPVHTPRP | 0.375
79 | RRIRWRPPRLPRPRPRPKSLPRP | -0.0933
80 | RRIRHRPPRLPRPRPRPKVSPRP | -0.112
81 | RRIRDRPPRLPRPRPRPQTEPRP | 0.125
82 | RRIRPRPPRLPRPRPRPRTFPRP | 0.23
83 | RRIRMRPPRLPRPRPRPLPIPRP | -0.0881
84 | RRIRPRPPRLPRPRPRPGEPPRP | 0.0896
85 | RRIRGRPPRLPRPRPRPREKPRP | 0.969
86 | RRIRRRPPRLPRPRPRPVSSPRP | 0.0647
87 | RRIRCRPPRLPRPRPRPGNLPRP | -0.167
88 | RRIRYRPPRLPRPRPRPTTKPRP | -0.179
89 | RRIRQRPPRLPRPRPRPLCSPRP | -0.0385
90 | RRIRGRPPRLPRPRPRPDIIPRP | 0.188
91 | RRIRNRPPRLPRPRPRPKFLPRP | 0.0309
92 | RRIRQRPPRLPRPRPRPSCPPRP | -0.037
93 | RRIRRRPPRLPRPRPRPMFYPRP | -0.229
94 | RRIRFRPPRLPRPRPRPINSPRP | -0.428
95 | RRIRARPPRLPRPRPRPCCRPRP | 0.406
96 | RRIRSRPPRLPRPRPRPENHPRP | -0.138
97 | RRIRRRPPRLPRPRPRPKFFPRP | -0.00723
98 | RRIRLRPPRLPRPRPRPQCRPRP | 0.0156
99 | RRIRTRPPRLPRPRPRPKARPRP | 0.0672
100 | RRIRKRPPRLPRPRPRPGCKPRP | 0.189

Row | Sequence | shrunken log2 fold change
101 | RRIRHRPPRLPRPRPRPTLRPRP | -0.0301
102 | RRIRNRPPRLPRPRPRPNKGPRP | -0.134
103 | RRIRYRPPRLPRPRPRPRHRPRP | 0.0433
104 | RRIRYRPPRLPRPRPRPRSMPRP | -0.622
105 | RRIRHRPPRLPRPRPRPEYRPRP | -0.0136
106 | RRIRIRPPRLPRPRPRPLMNPRP | -0.94
107 | RRIRRRPPRLPRPRPRPQALPRP | 0.128
108 | RRIRERPPRLPRPRPRPQKIPRP | -0.12
109 | RRIRARPPRLPRPRPRPEFFPRP | 0.33
110 | RRIRRRPPRLPRPRPRPHTTPRP | -0.303
111 | RRIRTRPPRLPRPRPRPECNPRP | 0.0232
112 | RRIRPRPPRLPRPRPRPPNDPRP | 0.111
113 | RRIRTRPPRLPRPRPRPKAGPRP | 0.768
114 | RRIRGRPPRLPRPRPRPQTSPRP | 0.407
115 | RRIRYRPPRLPRPRPRPREIPRP | -0.442
116 | RRIRLRPPRLPRPRPRPESKPRP | 0.286
117 | RRIRTRPPRLPRPRPRPNRRPRP | 0.0696
118 | RRIRTRPPRLPRPRPRPRNHPRP | -0.345
119 | RRIRERPPRLPRPRPRPTAFPRP | -0.16
120 | RRIRHRPPRLPRPRPRPCKYPRP | 0.0259
121 | RRIRDRPPRLPRPRPRPVLSPRP | -0.0284
122 | RRIRMRPPRLPRPRPRPYQWPRP | -0.055
123 | RRIRDRPPRLPRPRPRPCAFPRP | 0.822
124 | RRIRKRPPRLPRPRPRPCNSPRP | -0.0179
125 | RRIRHRPPRLPRPRPRPQSDPRP | 0.0136

Row | Sequence | shrunken log2 fold change
126 | RRIRGRPPRLPRPRPRPDASPRP | 1.34
127 | RRIRMRPPRLPRPRPRPMIFPRP | 0.0369
128 | RRIRCRPPRLPRPRPRPPPTPRP | 1.48
129 | RRIRSRPPRLPRPRPRPYTCPRP | -0.039
130 | RRIRARPPRLPRPRPRPDWNPRP | 0.0789
131 | RRIRWRPPRLPRPRPRPQMCPRP | 0.349
132 | RRIRHRPPRLPRPRPRPWHIPRP | -0.864
133 | RRIRKRPPRLPRPRPRPEVDPRP | 3.04
134 | RRIRDRPPRLPRPRPRPLMWPRP | 2.47
135 | RRIRCRPPRLPRPRPRPCENPRP | 0.0291
136 | RRIRVRPPRLPRPRPRPWHSPRP | -0.435
137 | RRIRQRPPRLPRPRPRPIIMPRP | -0.25
138 | RRIRPRPPRLPRPRPRPKPLPRP | 0.567
139 | RRIRHRPPRLPRPRPRPRQAPRP | 0.495
140 | RRIRRRPPRLPRPRPRPRINPRP | 0.125
141 | RRIRARPPRLPRPRPRPKFQPRP | 0.328
142 | RRIRNRPPRLPRPRPRPWPPPRP | 0.692
143 | RRIRVRPPRLPRPRPRPPYGPRP | 0.024
144 | RRIRKRPPRLPRPRPRPVNHPRP | -0.0443
145 | RRIRVRPPRLPRPRPRPRQSPRP | 0.181
146 | RRIRKRPPRLPRPRPRPAYVPRP | 0.108
147 | RRIRLRPPRLPRPRPRPYLKPRP | -0.396
148 | RRIRPRPPRLPRPRPRPMLKPRP | 0.0171
149 | RRIRNRPPRLPRPRPRPDNLPRP | -1.04
150 | RRIRSRPPRLPRPRPRPYNPPRP | -0.953
